PMC4442312 (eLife, 2015)
Ends that are not written are not given here. Me3 = tri-methylated lysine; Me2 = di-methylated lysine

T1: T7-ORCA (full-length) (human, UniProt Q9UFC0 1-647)
T1 construct: ORCA/LRWD1, full length; also called T7-tagged ORCA; full-length T7-ORCA; source: U2OS, transiently transfected, in lysate
T1 sequence (looked up): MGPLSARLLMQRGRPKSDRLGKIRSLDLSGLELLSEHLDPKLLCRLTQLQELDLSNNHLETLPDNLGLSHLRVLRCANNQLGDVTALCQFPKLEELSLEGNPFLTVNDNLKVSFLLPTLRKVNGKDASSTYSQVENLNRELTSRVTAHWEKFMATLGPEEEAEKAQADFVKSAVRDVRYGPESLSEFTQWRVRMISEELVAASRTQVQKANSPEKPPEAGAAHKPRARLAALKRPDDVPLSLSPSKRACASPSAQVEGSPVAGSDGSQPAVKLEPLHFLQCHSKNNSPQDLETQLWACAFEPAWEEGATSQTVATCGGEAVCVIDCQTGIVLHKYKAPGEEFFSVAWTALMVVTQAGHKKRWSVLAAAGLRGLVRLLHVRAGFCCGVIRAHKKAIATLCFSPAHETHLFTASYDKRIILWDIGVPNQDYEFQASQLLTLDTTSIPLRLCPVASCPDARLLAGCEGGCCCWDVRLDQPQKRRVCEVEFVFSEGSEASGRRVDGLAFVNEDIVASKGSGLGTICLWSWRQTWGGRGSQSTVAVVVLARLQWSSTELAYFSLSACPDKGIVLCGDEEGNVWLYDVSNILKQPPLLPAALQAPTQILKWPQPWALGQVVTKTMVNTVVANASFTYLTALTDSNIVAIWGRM

T2: His-ORCA (baculovirus) (human, UniProt Q9UFC0 1-647)
T2 construct: ORCA/LRWD1 in pFastBac HT-B; also called purified His-tagged-ORCA; baculovirally purified His-ORCA; source: Hi5 insect cells (baculovirus), nuclear extract, 45% ammonium sulfate precipitation; called 'baculovirally purified'
T2 sequence (looked up): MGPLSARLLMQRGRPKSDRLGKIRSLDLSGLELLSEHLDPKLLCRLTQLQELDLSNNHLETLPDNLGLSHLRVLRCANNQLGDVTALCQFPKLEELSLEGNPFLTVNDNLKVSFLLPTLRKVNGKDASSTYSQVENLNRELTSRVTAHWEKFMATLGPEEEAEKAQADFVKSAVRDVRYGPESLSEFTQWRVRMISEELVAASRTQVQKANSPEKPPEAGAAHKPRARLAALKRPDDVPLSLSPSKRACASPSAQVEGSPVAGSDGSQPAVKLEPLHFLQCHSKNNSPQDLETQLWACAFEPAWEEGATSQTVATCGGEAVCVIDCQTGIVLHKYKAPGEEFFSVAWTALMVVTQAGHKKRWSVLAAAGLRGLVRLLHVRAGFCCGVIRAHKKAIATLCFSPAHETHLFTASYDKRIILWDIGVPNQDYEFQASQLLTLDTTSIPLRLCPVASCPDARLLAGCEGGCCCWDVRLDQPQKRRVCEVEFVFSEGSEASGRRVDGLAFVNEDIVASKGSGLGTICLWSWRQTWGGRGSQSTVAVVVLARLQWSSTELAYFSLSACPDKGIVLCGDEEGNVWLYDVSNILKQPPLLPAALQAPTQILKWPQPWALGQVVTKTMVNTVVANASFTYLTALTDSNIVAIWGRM


How the values were obtained:
T7-ORCA (full-length) = biological target: T1, T7-ORCA (full-length); test: single-molecule pull-down (SiMPull); biotinylated T7 antibody on NeutrAvidin/PEG quartz slides; U2OS lysates co-expressing T7-ORCA and one YFP protein; TIRF, YFP photobleaching steps; biotinylated HA antibody as control; settings: partners not purified
His-ORCA (baculovirus) = biological target: T2, His-ORCA (baculovirus); test: pull-down; H3 (1-15) peptides coupled to SulphoLink (iodoalkyl agarose) resin, incubated with baculovirally purified His-ORCA 2 hr at RT in PK 150 buffer (150 mM KCl, 0.02% NP-40); immunoblot; settings: both partners purified

stoichiometry N (T7-ORCA (full-length)) | binding result (His-ORCA (baculovirus)) | Binder
1 Orc1 per ORCA |  | YFP-ORC1 (natural protein, UniProt Q13415 1-861, looked up, origin recognition complex subunit 1; source: U2OS, transiently transfected, in lysate) MAHYPTRLKTRKTYSWVGRPLLDRKLHYQTYREMCVKTEGCSTEIHIQIGQFVLIEGDDDENPYVAKLLELFEDDSDPPPKKRARVQWFVRFCEVPACKRHLLGRKPGAQEIFWYDYPACDSNINAETIIGLVRVIPLAPKDVVPTNLKNEKTLFVKLSWNEKKFRPLSSELFAELNKPQESAAKCQKPVRAKSKSAESPSWTPAEHVAKRIESRHSASKSRQTPTHPLTPRARKRLELGNLGNPQMSQQTSCASLDSPGRIKRKVAFSEITSPSKRSQPDKLQTLSPALKAPEKTRETGLSYTEDDKKASPEHRIILRTRIAASKTIDIREERTLTPISGGQRSSVVPSVILKPENIKKRDAKEAKAQNEATSTPHRIRRKSSVLTMNRIRQQLRFLGNSKSDQEEKEILPAAEISDSSSDEEEASTPPLPRRAPRTVSRNLRSSLKSSLHTLTKVPKKSLKPRTPRCAAPQIRSRSLAAQEPASVLEEARLRLHVSAVPESLPCREQEFQDIYNFVESKLLDHTGGCMYISGVPGTGKTATVHEVIRCLQQAAQANDVPPFQYIEVNGMKLTEPHQVYVQILQKLTGQKATANHAAELLAKQFCTRGSPQETTVLLVDELDLLWTHKQDIMYNLFDWPTHKEARLVVLAIANTMDLPERIMMNRVSSRLGLTRMCFQPYTYSQLQQILRSRLKHLKAFEDDAIQLVARKVAALSGDARRCLDICRRATEICEFSQQKPDSPGLVTIAHSMEAVDEMFSSSYITAIKNSSVLEQSFLRAILAEFRRSGLEEATFQQIYSQHVALCRMEGLPYPTMSETMAVCSHLGSCRLLLVEPSRNDLLLRVRLNVSQDDVLYALKDE
1 Suv39H1 per ORCA |  | YFP-Suv39H1 (enzyme, UniProt O43463 1-412, looked up, Suv39H1; human clones in pEYFP and pSV2-YFP-mSuv39H1 are both named in the methods; source: U2OS, transiently transfected, in lysate) MAENLKGCSVCCKSSWNQLQDLCRLAKLSCPALGISKRNLYDFEVEYLCDYKKIREQEYYLVKWRGYPDSESTWEPRQNLKCVRILKQFHKDLERELLRRHHRSKTPRHLDPSLANYLVQKAKQRRALRRWEQELNAKRSHLGRITVENEVDLDGPPRAFVYINEYRVGEGITLNQVAVGCECQDCLWAPTGGCCPGASLHKFAYNDQGQVRLRAGLPIYECNSRCRCGYDCPNRVVQKGIRYDLCIFRTDDGRGWGVRTLEKIRKNSFVMEYVGEIITSEEAERRGQIYDRQGATYLFDLDYVEDVYTVDAAYYGNISHFVNHSCDPNLQVYNVFIDNLDERLPRIAFFATRTIRAGEELTFDYNMQVDPVDMESTRMDSNFGLAGLPGSPKKRVRIECKCGTESCRKYLF
 | binds | CARTKQTARK(Me)STGGKA (a cysteine at the N terminus, for coupling to the resin; human histone H3, amino acids 1-15; also called H3K9me1 peptide; source: synthetic peptide (Biomer technology), coupled to SulphoLink resin) [Histone H3 (1–15) peptide, K9 mono-methylated, N-terminal cysteine]
 | binds | CARTKQTARK(Me2)STGGKA (a cysteine at the N terminus, for coupling to the resin; human histone H3, amino acids 1-15; also called H3K9me2 peptide; source: synthetic peptide (Biomer technology), coupled to SulphoLink resin) [Histone H3 (1–15) peptide, K9 di-methylated, N-terminal cysteine]
 | binds | CARTKQTARK(Me3)STGGKA (a cysteine at the N terminus, for coupling to the resin; human histone H3, amino acids 1-15; also called H3K9me3 peptide; source: synthetic peptide (Biomer technology), coupled to SulphoLink resin) [Histone H3 (1–15) peptide, K9 tri-methylated, N-terminal cysteine]
